Literature values as cited in publication PMC10302803.

Target: VEGF-P3CYC
Sequence (main, as listed by the source): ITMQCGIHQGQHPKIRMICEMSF

Kd: 11 nM
Substance: VEGFR2 (from UniProt P35968)
